According to publication PMC3098740 (Biochemistry, 2010):

Target: T1, Methyl-coenzyme M reductase (MCR) subunit α (Methanothermobacter marburgensis …, UniProt P11558 1-550)
T1 sequence (looked up): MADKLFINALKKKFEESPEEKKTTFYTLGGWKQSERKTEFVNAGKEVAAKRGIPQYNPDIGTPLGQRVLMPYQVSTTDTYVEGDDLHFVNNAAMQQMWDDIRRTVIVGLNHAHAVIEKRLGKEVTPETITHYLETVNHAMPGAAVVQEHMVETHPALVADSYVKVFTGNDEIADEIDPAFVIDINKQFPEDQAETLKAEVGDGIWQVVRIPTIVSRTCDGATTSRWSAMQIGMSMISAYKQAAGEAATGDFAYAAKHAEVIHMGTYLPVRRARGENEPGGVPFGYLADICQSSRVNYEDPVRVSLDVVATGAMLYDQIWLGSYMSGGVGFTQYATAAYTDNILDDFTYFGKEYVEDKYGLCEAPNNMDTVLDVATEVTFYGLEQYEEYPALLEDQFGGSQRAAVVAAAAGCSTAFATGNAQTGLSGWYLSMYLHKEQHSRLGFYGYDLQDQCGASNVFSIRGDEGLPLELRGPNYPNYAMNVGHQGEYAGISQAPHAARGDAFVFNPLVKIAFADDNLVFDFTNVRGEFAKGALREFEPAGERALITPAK
Assay: crystal structure

- binding result: binds
B1: Methyl-coenzyme M reductase (MCR) subunit β (natural protein, UniProt P11560 1-443, looked up)
chain: MAKFEDKVDLYDDRGNLVEEQVPLEALSPLRNPAIKSIVQGIKRTVAVNLEGIENALKTAKVGGPACKIMGRELDLDIVGNAESIAAAAKEMIQVTEDDDTNVELLGGGKRALVQVPSARFDVAAEYSAAPLVTATAFVQAIINEFDVSMYDANMVKAAVLGRYPQSVEYMGANIATMLDIPQKLEGPGYALRNIMVNHVVAATLKNTLQAAALSTILEQTAMFEMGDAVGAFERMHLLGLAYQGMNADNLVFDLVKANGKEGTVGSVIADLVERALEDGVIKVEKELTDYKVYGTDDLAMWNAYAAAGLMAATMVNQGAARAAQGVSSTLLYYNDLIEFETGLPSVDFGKVEGTAVGFSFFSHSIYGGGGPGIFNGNHIVTRHSKGFAIPCVAAAMALDAGTQMFSPEATSGLIKEVFSQVDEFREPLKYVVEAAAEIKNEI
